Source: patent US20220177587A1, “METHODS AND USES OF VARIANT CD80 FUSION PROTEINS AND RELATED CONSTRUCTS” (Alpine Immune Sciences, Inc., priority 2018, published 2022)
Where a chain is given by its changes, count along the chain named. Numbers in names are those of the source.

Assays:
huCTLA4 = huCTLA4 (Homo sapiens, UniProt P16410); test: Flow binding to CHO cells stably expressing CTLA4; set-up: huCTLA4 and huPD-L1, full-length mammalian surface expression constructs were generated; expressed in transfected cells; host or cells: CHO cells, lentiviral transduction, sorted to >98% purity; details: for CTLA4 MFI at 33.3 nM: CHO cells stably expressing CTLA4
How it was run: (§1)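 Cells were first blocked in PBS with 1% BSA and 0.1% sodium azide. Primary staining with fusion protein ran 45 min on ice, and secondary staining with PE anti-human Fc at 1:150 ran 30 min on ice.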

huPD-L1 = huPD-L1 (Homo sapiens, UniProt Q9NZQ7); test: Flow binding to CHO cells stably expressing PD-L1; set-up: huCTLA4 and huPD-L1, full-length mammalian surface expression constructs were generated; expressed in transfected cells; host or cells: CHO cells, lentiviral transduction, sorted to >98% purity; details: for PD-L1 MFI at 33.3 nM: CHO cells stably expressing PD-L1
How it was run: as §1

CD28 = CD28 (Homo sapiens, UniProt P10747); test: Flow binding to Jurkat/IL2 reporter cells (CD28); set-up: host or cells: Jurkat cells expressing an IL-2-luciferase reporter
Description: Binding of selected immunomodulatory fusion proteins to cognate binding partners was assessed. […] Cells were sorted in a Bio-Rad S3 Cell Sorter (Bio-Rad Corp., USA) to >98% purity. Jurkat/IL2 reporter cells, which endogenously express CD28, were used to detect binding to CD28.
For staining and analysis by flow cytometry, 100,000 cells of appropriate transfected cells were plated in 96-well round bottom plates. Cells were spun down and resuspended in staining buffer (phosphate buffered saline (PBS), 1% bovine serum albumin (BSA), and 0.1% sodium azide) for 20 minutes to block non-specific binding. […] Primary staining was performed on ice for 45 minutes, before washing cells in staining buffer twice. Phycoerythrin (PE)-conjugated anti-human Fc (Jackson ImmunoResearch, USA) was diluted 1:150, added to cells and incubated another 30 minutes on ice. Cells were then washed twice with 150 μL/well stain buffer, fixed in 2% formaldehyde/PBS, and analyzed on Intellicyt flow cytometer (Intellicyt Corp., USA). PE Mean Fluorescence Intensity (MFI) was calculated for each cell type with FlowJo Version 10 software (FlowJo LLC, USA).
Binding assays were carried out to assess the specificity and affinity of multivalent proteins to cell-expressed CTLA-4, CD28, and PD-L1 counter structures.
The EC50 for binding also was determined.

[1] = Table E4, 33.3 nM variant CD80 IgV-Fc
[2] = Table E4, MFI ratio to WT CD80 ECD-Fc (R&D) at 33.3 nM
[3] = Table E4, binding to PD-L1 compared to binding to CD28
[4] = Table E4, 33.3 nM, Jurkat cells (CD28)
[5] = Table E19, Jurkats (CD28), 33.3 nM
[6] = Table E20, Jurkats (CD28), 33.3 nM
[7] = Table E11, 33.3 nM, listed as WT CD80 ECD-Fc = 1.0
[8] = Table E11, Jurkats (CD28), 33.3 nM
[9] = Table E23, CD80 IgV-Fc (inert) at 33.3 nM
[10] = Table E23, MFI at 33.3 nM relative to CD80 WT IgV-Fc
[11] = Table E23, CD80 IgV-Fc (inert) at 33.3 nM, Jurkat (CD28)

huCTLA4, sequence (P16410 36-223): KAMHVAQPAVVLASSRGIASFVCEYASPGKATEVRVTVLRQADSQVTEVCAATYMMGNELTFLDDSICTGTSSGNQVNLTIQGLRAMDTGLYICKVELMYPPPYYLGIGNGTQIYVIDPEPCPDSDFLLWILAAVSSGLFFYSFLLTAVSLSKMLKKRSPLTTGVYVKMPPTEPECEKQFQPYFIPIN
huPD-L1, sequence (Q9NZQ7 19-290): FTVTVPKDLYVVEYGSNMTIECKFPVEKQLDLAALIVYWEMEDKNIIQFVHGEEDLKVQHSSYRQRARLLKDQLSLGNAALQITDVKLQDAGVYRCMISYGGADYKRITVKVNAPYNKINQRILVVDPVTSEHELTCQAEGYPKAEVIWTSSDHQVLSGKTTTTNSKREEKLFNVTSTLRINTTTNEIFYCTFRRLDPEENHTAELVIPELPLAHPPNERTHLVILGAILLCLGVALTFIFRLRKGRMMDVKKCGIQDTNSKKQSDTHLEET

B1: E35D/M47V/N48KN68M/K89N (protein)
chain: VIHVTKEVKEVATLSCGHNVSVEELAQTRIYWQKDKKMVLTMMSGDVKIWPEYKNRTIFDITNNLSIMILALRPSDEGTYECVVLKYENDAFKREHLAEVTLSVKAD
- CTLA4 MFI at 33.3 nM (huCTLA4; [1]): 807
- CTLA4 Fold change to WT CD80 (huCTLA4; [2]): 0.01
- PD-L1 MFI at 33.3 nM (huPD-L1; Table E4, 33.3 nM): 89775
- PD-L1 Fold change to WT CD80 (huPD-L1; [2]): 7.56
- Ratio of PDL1:CD28 (huPD-L1; [3]): 8
- CD28 MFI at 33.3 nM (CD28; [4]): 11736
- CD28 Fold change to WT CD80 (CD28; [2]): 0.65

B2: M47L/V68M/L85Q (protein)
chain: B1 chain with D35E, V47L, K48N, L85Q, N89K
- CTLA4 MFI at 33.3 nM (huCTLA4; Table E19, 33.3 nM): 11134
- PD-L1 MFI at 33.3 nM (huPD-L1; Table E19, 33.3 nM): 4039
- CD28 MFI at 33.3 nM (CD28; [5]): 60.9

B3: M47V/K89N (protein)
chain: B1 chain with D35E, K48N, M68V
- CTLA4 MFI at 33.3 nM (huCTLA4; Table E19, 33.3 nM): 32381
- PD-L1 MFI at 33.3 nM (huPD-L1; Table E19, 33.3 nM): 622
- CD28 MFI at 33.3 nM (CD28; [5]): 197

B4: A26E/M47L/V68M/A71G (protein)
chain: B1 chain with A26E, D35E, V47L, K48N, A71G, N89K
- CTLA4 MFI at 33.3 nM (huCTLA4; Table E20, 33.3 nM): 3227
- PD-L1 MFI at 33.3 nM (huPD-L1; Table E20, 33.3 nM): 1667
- CD28 MFI at 33.3 nM (CD28; [6]): 98.7

B5: H18Y/A26E/E35D/V68M (protein)
chain: B1 chain with H18Y, A26E, V47M, K48N, N89K
- CTLA4 MFI at 33.3 nM (huCTLA4; Table E20, 33.3 nM): 20929
- PD-L1 MFI at 33.3 nM (huPD-L1; Table E20, 33.3 nM): 17904
- CD28 MFI at 33.3 nM (CD28; [6]): 372

B6: N48K (protein)
chain: B1 chain with D35E, V47M, M68V, N89K
- CTLA4 MFI at 33.3 nM (huCTLA4; Table E19, 33.3 nM): 4952
- PD-L1 MFI at 33.3 nM (huPD-L1; Table E19, 33.3 nM): 481
- CD28 MFI at 33.3 nM (CD28; [5]): 60.1

B7: E35D/M47V/N48KN68M/A71G/L85M (protein)
chain: B1 chain with A71G, L85M, N89K
- CTLA4 Fold change to WT CD80 (huCTLA4; [7]): 9.5
- CTLA4 MFI at 33.3 nM (huCTLA4; Table E11, 33.3 nM): 16604
- PD-L1 Fold change to WT CD80 (huPD-L1; [7]): 442.1
- PD-L1 MFI at 33.3 nM (huPD-L1; Table E11, 33.3 nM): 22770
- Ratio of PDL1:CD28 (huPD-L1; Table E11, MFI at 33.3 nM): 75.4
- CD28 Fold change to WT CD80 (CD28; [7]): 9.6
- CD28 MFI at 33.3 nM (CD28; [8]): 302

B8: A26E/M47L/V68M/D90G (protein)
chain: B1 chain with A26E, D35E, V47L, K48N, N89K, D90G
- CTLA4 MFI at 33.3 nM (huCTLA4; Table E20, 33.3 nM): 21900
- PD-L1 MFI at 33.3 nM (huPD-L1; Table E20, 33.3 nM): 10626
- CD28 MFI at 33.3 nM (CD28; [6]): 2583

B9: E35D/L85Q/K93I/E95V/L97Q (protein)
chain: B1 chain with V47M, K48N, M68V, L85Q, N89K, K93T, E95V, L97Q
- CTLA4 MFI at 33.3 nM (huCTLA4; [1]): 246401
- CTLA4 Fold change to WT CD80 (huCTLA4; [2]): 1.57
- PD-L1 MFI at 33.3 nM (huPD-L1; Table E4, 33.3 nM): 19880
- PD-L1 Fold change to WT CD80 (huPD-L1; [2]): 1.67
- Ratio of PDL1:CD28 (huPD-L1; [3]): 50
- CD28 MFI at 33.3 nM (CD28; [4]): 400
- CD28 Fold change to WT CD80 (CD28; [2]): 0.02

B10: N48K/K89N (protein)
chain: B1 chain with D35E, V47M, M68V
- CTLA4 MFI at 33.3 nM (huCTLA4; Table E19, 33.3 nM): 4370
- CD28 MFI at 33.3 nM (CD28; [5]): 170

B11: L85Q (protein)
chain: B1 chain with D35E, V47M, K48N, M68V, L85Q, N89K
- CTLA4 MFI at 33.3 nM (huCTLA4; Table E19, 33.3 nM): 3002
- CD28 MFI at 33.3 nM (CD28; [5]): 35

B12: V68M (protein)
chain: B1 chain with D35E, V47M, K48N, N89K
- CTLA4 MFI at 33.3 nM (huCTLA4; Table E19, 33.3 nM): 568
- PD-L1 MFI at 33.3 nM (huPD-L1; Table E19, 33.3 nM): 118
- CD28 MFI at 33.3 nM (CD28; [5]): 37.9

B13: M47V/N48K (protein)
chain: B1 chain with D35E, M68V, N89K
- CTLA4 MFI at 33.3 nM (huCTLA4; Table E19, 33.3 nM): 44640
- PD-L1 MFI at 33.3 nM (huPD-L1; Table E19, 33.3 nM): 3083
- CD28 MFI at 33.3 nM (CD28; [5]): 413

B14: V68M/L85Q (protein)
chain: B1 chain with D35E, V47M, K48N, L85Q, N89K
- CTLA4 MFI at 33.3 nM (huCTLA4; Table E19, 33.3 nM): 3288
- PD-L1 MFI at 33.3 nM (huPD-L1; Table E19, 33.3 nM): 347
- CD28 MFI at 33.3 nM (CD28; [5]): 91.7

B15: H18Y/A26E/M47L/D90G (protein)
chain: B1 chain with H18Y, A26E, D35E, V47L, K48N, M68V, N89K, D90G
- CTLA4 MFI at 33.3 nM (huCTLA4; Table E20, 33.3 nM): 23485
- PD-L1 MFI at 33.3 nM (huPD-L1; Table E20, 33.3 nM): 8933
- CD28 MFI at 33.3 nM (CD28; [6]): 2858

B16: E35D/M47L/V68M/L85Q (protein)
chain: B1 chain with V47L, K48N, L85Q, N89K
- CTLA4 MFI at 33.3 nM (huCTLA4; Table E19, 33.3 nM): 28106
- PD-L1 MFI at 33.3 nM (huPD-L1; Table E19, 33.3 nM): 15307
- CD28 MFI at 33.3 nM (CD28; [5]): 159

B17: E35D/M47V/N48KN68M/L85M (protein)
chain: B1 chain with L85M, N89K
- CTLA4 Fold change to WT CD80 (huCTLA4; [7]): 8.9
- CTLA4 MFI at 33.3 nM (huCTLA4; Table E11, 33.3 nM): 15581
- PD-L1 Fold change to WT CD80 (huPD-L1; [7]): 147.9
- PD-L1 MFI at 33.3 nM (huPD-L1; Table E11, 33.3 nM): 7618
- Ratio of PDL1:CD28 (huPD-L1; Table E11, MFI at 33.3 nM): 31.1
- CD28 Fold change to WT CD80 (CD28; [7]): 7.8
- CD28 MFI at 33.3 nM (CD28; [8]): 245

B18: N48K/V68M (protein)
chain: B1 chain with D35E, V47M, N89K
- CTLA4 MFI at 33.3 nM (huCTLA4; Table E19, 33.3 nM): 2341
- PD-L1 MFI at 33.3 nM (huPD-L1; Table E19, 33.3 nM): 754
- CD28 MFI at 33.3 nM (CD28; [5]): 118

B19: H18I/A26P/E35D/M47V/V68M/A71G (protein, UniProt P33681 35-288, looked up, variant H18I A26P E35D M47V V68M A71G)
T-lymphocyte activation …: VIHVTKEVKEVATLSCGINVSVEELPQTRIYWQKDKKMVLTMMSGDVNIWPEYKNRTIFDITNNLSIMILGLRPSDEGTYECVVLKYEKDAFKREHLAEVTLSVKADFPTPSISDFEIPTSNIRRIICSTSGGFPEPHLSWLENGEELNAINTTVSQDPETELYAVSSKLDFNMTTNHSFMCLIKYGHLRVNQTFNWNTTKQEHFPDNLLPSWAITLISVNGIFVICCLTYCFAPRCRERRRNERLRRESVRPV
- CTLA4 MFI at 33.3 nM (huCTLA4; [9]): 21923
- CTLA4 Fold change to WT CD80 (huCTLA4; [10]): 15.8
- PD-L1 MFI at 33.3 nM (huPD-L1; [9]): 64919
- PD-L1 Fold change to WT CD80 (huPD-L1; [10]): 393.4
- Ratio of PDL1:CD28 (huPD-L1; Table E23, ratio of MFI at 33.3 nM): 25.2
- CD28 MFI at 33.3 nM (CD28; [11]): 2573
- CD28 Fold change to WT CD80 (CD28; [10]): 25.2

B20: H18L/E35D/M47V/V68M/A71G/D90G (protein, UniProt P33681 35-288, looked up, variant H18L E35D M47V V68M A71G D90G)
T-lymphocyte activation …: B19 T-lymphocyte activation … with I18L, P26A, D90G
- CTLA4 MFI at 33.3 nM (huCTLA4; [9]): 20280
- PD-L1 MFI at 33.3 nM (huPD-L1; [9]): 64761
- CD28 MFI at 33.3 nM (CD28; [11]): 6349
